The values that follow are results of earlier work, collected in patent US20200069786A1, “COMPOSITION AND PROCESS FOR PREPARING VACCINE” (TREOS BIO ZRT., priority 2018, published 2020).

Read-outs that look alike come from different tables or passages of the source.

The subject of this data set is TSA.
[1] abbreviates: TSA expression rate in LEUKEMIAS
The mark [2] stands for this setting: TSA expression rate in MELANOMA
The mark [3] stands for this setting: TSA expression rate in LUNG cancer.

B1: TEX14 (protein, UniProt Q8IWB6 1-1497, looked up)
Inactive …: MSRAVRLPVPCPVQLGTLRNDSLEAQLHEYVKQGNYVKVKKILKKGIYVDAVNSLGQTALFVAALLGLRKFVDVLVDYGSDPNHRCFDGSTPVHAAAFSGNQWILSKLLDAGGDLRLHDERGQNPKTWALTAGKERSTQIVEFMQRCASHMQAIIQGFSYDLLKKIDSPQRLVYSPSWCGGLVQGNPNGSPNRLLKAGVISAQNIYSFGFGKAMPWFQFYLTGATQMAYLGSLPVIGEKEVIQADDEPTFSFFSGPYMVMTNLVWNGSRVTVKELNLPTHPHCSRLRLADLLIAEQEHSSKLRHPYLLQLMAVCLSQDLEKTRLVYERITIGTLFSVLHERRSQFPVLHMEVIVHLLLQISDALRYLHFQGFIHRSLSSYAVHIISPGEARLTNLEYMLESEDRGVQRDLTRVPLPTQLYNWAAPEVILQKAATVKSDIYSFSMIMQEILTDDIPWKGLDGSVVKKAVVSGNYLEADVRLPKPYYDIVKSGIHVKQKDRTMNLQDIRYILKNDLKDFTGAQRTQPTESPRVQRYGLHPDVNVYLGLTSEHPRETPDMEIIELKEMGSQPHSPRVHSLFTEGTLDPQAPDPCLMARETQNQDAPCPAPFMAEEASSPSTGQPSLCSFEINEIYSGCLILEDDIEEPPGAASSLEADGPNQVDELKSMEEELDKMEREACCFGSEDESSSKAETEYSFDDWDWQNGSLSSLSLPESTREAKSNLNNMSTTEEYLISKCVLDLKIMQTIMHENDDRLRNIEQILDEVEMKQKEQEERMSLWATSREFTNAYKLPLAVGPPSLNYIPPVLQLSGGQKPDTSGNYPTLPRFPRMLPTLCDPGKQNTDEQFQCTQGAKDSLETSRIQNTSSQGRPRESTAQAKATQFNSALFTLSSHRQGPSASPSCHWDSTRMSVEPVSSEIYNAESRNKDDGKVHLKWKMEVKEMAKKAATGQLTVPPWHPQSSLTLESEAENEPDALLQPPIRSPENTDWQRVIEYHRENDEPRGNGKFDKTGNNDCDSDQHGRQPRLGSFTSIRHPSPRQKEQPEHSEAFQASSDTLVAVEKSYSHQSMQSTCSPESSEDITDEFLTPDGEYFYSSTAQENLALETSSPIEEDFEGIQGAFAQPQVSGEEKFQMRKILGKNAEILPRSQFQPVRSTEDEQEETSKESPKELKEKDISLTDIQDLSSISYEPDSSFKEASCKTPKINHAPTSVSTPLSPGSVSSAASQYKDCLESITFQVKTEFASCWNSQEFIQTLSDDFISVRERAKKLDSLLTSSETPPSRLTGLKRLSSFIGAGSPSLVKACDSSPPHATQRRSLPKVEAFSQHHIDELPPPSQELLDDIELLKQQQGSSTVLHENTASDGGGTANDQRHLEEQETDSKKEDSSMLLSKETEDLGEDTERAHSTLDEDLERWLQPPEESVELQDLPKGSERETNIKDQKVGEEKRKREDSITPERRKSEGVLGTSEEDELKSCFWKRLGWSESSRIIVLDQSDLSD
Turning to B1, the “Expression Rate (ER) %” value under setting [1] is 5%.

B2: TMEM31 (protein, UniProt Q5JXX7 1-168, looked up)
Transmembrane protein 31: MRLTEKSEGEQQLKPNNSNAPNEDQEEEIQQSEQHTPARQRTQRADTQPSRCRLPSRRTPTTSSDRTINLLEVLPWPTEWIFNPYRLPALFELYPEFLLVFKEAFHDISHCLKAQMEKIGLPIILHLFALSTLYFYKFFLPTILSLSFFILLVLLLLLFIIVFILIFF
Take B2: under setting [2], the “Expression Rate (ER) %” value is reported as 63%.

B3: HORMAD2 (protein, UniProt Q8N7B1 1-307, looked up)
HORMA domain-containing …: MATAQLSHCITIHKASKETVFPSQITNEHESLKMVKKLFATSISCITYLRGLFPESSYGERHLDDLSLKILREDKKCPGSLHIIRWIQGCFDALEKRYLRMAVLTLYTDPMGSEKVTEMYQFKFKYTKEGATMDFDSHSSSTSFESGTNNEDIKKASVLLIRKLYILMQDLEPLPNNVVLTMKLHYYNAVTPHDYQPLGFKEGVNSHFLLFDKEPINVQVGFVSTGFHSMKVKVMTEATKVIDLENNLFRENSTTEIAHQGLDCDEEEECNDHIQRMNFVCSQQSSECSRKKRKVSEPVKVFIPNRK
As for B3, under setting [3], the “Expression Rate (ER) %” value is 5%.

B4: FAM133A (protein, UniProt Q8N9E0 1-248, looked up)
Protein FAM133A: MGKRDNRVAYMNPIAMARWRGPTQSVGPTIQDYLNRPRPTWEEVKKQLENKKTGSKALAEFEEKMNENWKKELEKSREKLLSGNESSSKKRERKKKRKKKSCRSSSSSSSSDSSSSSSDSEDEEKKQGKRRKKKKNRSYKSSQSSTHESESESKESVKKKKKSKDETEKEKDVRSLSKKRKKSYPDDKPLSSESSSESDYEEDVQAKKKRRCEEREQAKEKVKKKKKKQHKKHSKKKKKKSGSSHKSR
Consider B4, for which the “Expression Rate (ER) %” value under setting [1] is 83%.

B5: LIPI (protein, UniProt Q6XZB0 16-460, looked up)
Lipase member I: DNKRPCLEFSQLSVKDSFRDLFIPRIETILMMYTRNNLNCAEPLFEQNNSLNVNFNTQKKTVWLIHGYRPVGSIPLWLQNFVRILLNEEDMNVIVVDWSRGATTFIYNRAVKNTRKVAVSLSVHIKNLLKHGASLDNFHFIGVSLGAHISGFVGKIFHGQLGRITGLDPAGPRFSRKPPYSRLDYTDAKFVDVIHSDSNGLGIQEPLGHIDFYPNGGNKQPGCPKSIFSGIQFIKCNHQRAVHLFMASLETNCNFISFPCRSYKDYKTSLCVDCDCFKEKSCPRLGYQAKLFKGVLKERMEGRPLRTTVFLDTSGTYPFCTYYFVLSIIVPDKTMMDGSFSFKLLNQLGMIEEPRLYEKNKPFYKLQEVKILAQFYNDFVNISSIGLTYFQSSNLQCSTCTYKIQSLMLKSLTYPERPPLCRYNIVLKDREEVFLNPNTCTPKNT
For B5, the “Expression Rate (ER) %” value reads like this: (TSA expression rate in CRC) 0%; (TSA expression rate in HEAD and NECK) 0%; (TSA expression rate in Kidney) 25%; under setting [1], 6%; under setting [3], 0%; under setting [2], 0%.

B6: CTAGE1 (protein, UniProt Q96RT6 1-745, looked up)
cTAGE family member 2: MRPDSHPYGFPWELVIRAAVAGFFAVLFLWRSFRSVTSRLYVRREKKFAVALSGLIEEKCKLLEKFSLVQKEYEGYEVESSLKNASFEKEATEAQSLEATCEKLNRFNSELVHEILCLEKELKEEKSKHSEQNELMADISKRIQSLEDESKSLKSQVAEAKMTFKRFQANEERLEIEIQDAWKENSELQESQKQLLQEAEVWKEQVSELIKQKRTFEDSKVHAEQVLNDKENHIKTLTERLLKMKDGVAMLEEDVTDDDNLELEMNSESEDGAYLDNPPKGALKKLIHAAKLNASLKTLEGERNQIYIQLSEVDKTKEELTEHIKNLQTEQASLQSENTHFESENQKLQQKLKVMTELYQENEMKLYRKLIVEEKCRLEKEEKLSKVDEMISHATEELETYRKRAKDLKEFEKTIHFYQKKIILHEKKAHDNWSAAWTAERNLNDLRKENAHNRQKLTEIEFKIKLLEKDPYGLDVPNTAFGRQHSPYGPSPLGWPSSETRASLYPPTLLEGPLRLSPLLPRGGGRGSRGPGNPPDHQITKERGESSCDRLTDPHRAPSDAGPLAPPWEQDYRMMFPPPGQSYPDSALPPQRQDRFYSNCARLSGPAELRSFNMPSLDKMDGSMPSEMESSRNDTKDNLGNLKVPDSSLPAENEATGPGFVPPPLAPIRGLLFPVDTRGPFIRRGPPFPPPPPGTVFGASPDYFSPRDVPGPPRAPFAMRNVYLPRGFLPYRPPRPAFFPPAPTF
As for B6, the “Expression Rate (ER) %” value reads like this: (TSA expression rate in BLADDER cancer) 53%; (TSA expression rate in CRC) 19%; under setting [1], 72%.

B7: CTNNA2 (protein, UniProt P26232 1-953, looked up)
Catenin alpha-2: MTSATSPIILKWDPKSLEIRTLTVERLLEPLVTQVTTLVNTSNKGPSGKKKGRSKKAHVLAASVEQATQNFLEKGEQIAKESQDLKEELVAAVEDVRKQGETMRIASSEFADDPCSSVKRGTMVRAARALLSAVTRLLILADMADVMRLLSHLKIVEEALEAVKNATNEQDLANRFKEFGKEMVKLNYVAARRQQELKDPHCRDEMAAARGALKKNATMLYTASQAFLRHPDVAATRANRDYVFKQVQEAIAGISNAAQATSPTDEAKGHTGIGELAAALNEFDNKIILDPMTFSEARFRPSLEERLESIISGAALMADSSCTRDDRRERIVAECNAVRQALQDLLSEYMNNTGRKEKGDPLNIAIDKMTKKTRDLRRQLRKAVMDHISDSFLETNVPLLVLIEAAKSGNEKEVKEYAQVFREHANKLVEVANLACSISNNEEGVKLVRMAATQIDSLCPQVINAALTLAARPQSKVAQDNMDVFKDQWEKQVRVLTEAVDDITSVDDFLSVSENHILEDVNKCVIALQEGDVDTLDRTAGAIRGRAARVIHIINAEMENYEAGVYTEKVLEATKLLSETVMPRFAEQVEVAIEALSANVPQPFEENEFIDASRLVYDGVRDIRKAVLMIRTPEELEDDSDFEQEDYDVRSRTSVQTEDDQLIAGQSARAIMAQLPQEEKAKIAEQVEIFHQEKSKLDAEVAKWDDSGNDIIVLAKQMCMIMMEMTDFTRGKGPLKNTSDVINAAKKIAEAGSRMDKLARAVADQCPDSACKQDLLAYLQRIALYCHQLNICSKVKAEVQNLGGELIVSGTGVQSTFTTFYEVDCDVIDGGRASQLSTHLPTCAEGAPIGSGSSDSSMLDSATSLIQAAKNLMNAVVLTVKASYVASTKYQKVYGTAAVNSPVVSWKMKAPEKKPLVKREKPEEFQTRVRRGSQKKHISPVQALSEFKAMDSF
With B7, under setting [1], the “Expression Rate (ER) %” value is given as 45%.

B8: MAGE-B3 (protein, UniProt O15480 1-346, looked up)
Melanoma-associated antigen B3: MPRGQKSTLHAREKRQQTRGQTQDHQGAQITATNKKKVSFSSPLILGATIQKKSAGRSRSALKKPQRALSTTTSVDVSYKKSYKGANSKIEKKQSFSQGLSSTVQSRTDPLIMKTNMLVQFLMEMYKMKKPIMKADMLKIVQKSHKNCFPEILKKASFNMEVVFGVDLKKVDSTKDSYVLVSKMDLPNNGTVTRGRGFPKTGLLLNLLGVIFMKGNCATEEKIWEFLNKMRIYDGKKHFIFGEPRKLITQDLVKLKYLEYRQVPNSNPARYEFLWGPRAHAETSKMKVLEFWAKVNKTVPSAFQFWYEEALRDEEERVQAAAMLNDGSSAMGRKCSKAKASSSSHA
As for B8, the “Expression Rate (ER) %” value under setting [3] was 0%.

B9: ADAM29 (protein, UniProt Q9UKF5 194-820, looked up)
Disintegrin and …: WIHFRIVEIVVVIDNYLYIRYERNDSKLLEDLYVIVNIVDSILDVIGVKVLLFGLEIWTNKNLIVVDDVRKSVHLYCKWKSENITPRMQHDTSHLFTTLGLRGLSGIGAFRGMCTPHRSCAIVTFMNKTLGTFSIAVAHHLGHNLGMNHDEDTCRCSQPRCIMHEGNPPITKFSNCSYGDFWEYTVERTKCLLETVHTKDIFNVKRCGNGVVEEGEECDCGPLKHCAKDPCCLSNCTLTDGSTCAFGLCCKDCKFLPSGKVCRKEVNECDLPEWCNGTSHKCPDDFYVEDGIPCKERGYCYEKSCHDRNEQCRRIFGAGANTASETCYKELNTLGDRVGHCGIKNATYIKCNISDVQCGRIQCENVTEIPNMSDHTTVHWARFNDIMCWSTDYHLGMKGPDIGEVKDGTECGIDHICIHRHCVHITILNSNCSPAFCNKRGICNNKHHCHCNYLWDPPNCLIKGYGGSVDSGPPPKRKKKKKFCYLCILLLIVLFILLCCLYRLCKKSKPIKKQQDVQTPSAKEEEKIQRRPHELPPQSQPWVMPSQSQPPVTPSQSHPQVMPSQSQPPVTPSQSQPRVMPSQSQPPVMPSQSHPQLTPSQSQPPVTPSQRQPQLMPSQSQPPVTPS
On to B9, for which, under setting [3], the “Expression Rate (ER) %” value is given as 7%.

B10: PAGE2 (protein, UniProt Q7Z2X7 1-111, looked up)
P antigen family member 2: MSELLRARSQSSERGNDQESSQPVGSVIVQEPTEEKRQEEEPPTDNQGIAPSGEIENQAVPAFQGPDMEAFQQELALLKIEDEPGDGPDVREGIMPTFDLTKVLEAGDAQP
Turning to B10, the “Expression Rate (ER) %” value under setting [1] was 4%.
